Here are results for six molecules from paper PMC6795539 (Nature medicine, 2019).

Numbering of substitutions follows the chain as printed.

To fix the notation:
B1: NZM variant var1 (light chain CDR2 modified), full human IgG4 (antibody, V domains shown)
VH: QVQLVQSGAEVKKPGASVKVSCKASGFNIKDTYIHWVRQAPGQRLEWMGRIDPANGYTKYDPKFQGRVTITADTSASTAYMELSSLRSEDTAVYYCAREGYYGNYGVYAMDYWGQGTLVTVSS
VL: DIQMTQSPSSLSASVGDRVTITCKTSQDINKYMAWYQQTPGKAPRLLIHYTKGNQPGIPSRFSGSGSGRDYTFTISSLQPEDIATYYCLQYDNLWTFGQGTKVEIK
B2: NZM variant var4 (light chain CDR2 modified), full human IgG4 (antibody, V domains shown)
VH: B1 VH
VL: B1 VL with G53S, P56S
B3: NZM variant var2 (light chain CDR2 modified), full human IgG4 (antibody, V domains shown)
VH: B1 VH
VL: B1 VL with P56S
B4: Natalizumab (NZM), humanized monoclonal IgG4 antibody to α4 integrins (antibody, V domains shown)
VH: B1 VH
VL: B1 VL with K52S, G53A, N54L
B5: NZM variant var3 (light chain CDR2 modified), full human IgG4 (antibody, V domains shown)
VH: B1 VH
VL: B1 VL with G53S
B6: NZM-mFc, variant of NZM in which the human Fc was replaced with the murine counterpart (antibody, V domains shown)
VH: B1 VH
VL: B1 VL with K52S, G53A, N54L

The target in the first assay is T1, α4 integrin on the surface of T cells (Homo sapiens, UniProt P13612). Put plainly: flow cytometry on cells. (In general: A flow cytometer gives signals particle by particle.)
On to B1, for which the binding result is “binds”.

As for B2, the binding result is “binds”.

As for B3, the binding result is “binds”.

Regarding B4, the binding result is listed as “binds”.

For B5, the binding result is “binds”.

Another assay addresses T1, α4 integrin on the surface of T cells. The assay can be described thus: flow cytometry on cells. The source holds these as a separate data set.
As to B6, the binding result is on record as “binds”.
